Entries after “also recorded” stand apart in the source; their conditions may differ. Each block holds one molecule with its values, some of them ahead of it.
Columns and labels:
p42/p44 MAP kinases [1] = test: p42/p44 MAP kinase phosphorylation in embryonic cardiomyocytes (immunoblot); assay type: cell-based, mouse
Procedure: (§1) Mouse embryos (E11.5-12.5) were used to prepare primary cardiac myocytes. Heart tissue was isolated aseptically from embryos. Myocardial cells were isolated by collagenase digestion and separated from non cardiomyocytes by preattachments on culture dishes that was performed three times. Cells were then cultured as described previously. Using this method, it was routinely possible to obtain primary cultures with >90% myocytes.
(§2) Embryonic myocardial cells were cultured in serum-free medium for at least 24 hrs and then stimulated with rhNRGβ2 or IGF-I for various times. Stimulation was terminated by washing cells rapidly with cold PBS. To block the MAP kinase activation, the MEK inhibitor, PD98059, was added to the medium 30 mins prior to the administration of rhNRGβ2 or IGF-I. Cells were then harvested as previously described for Western blot analysis with HRPO-conjugated monoclonal antibody RC20H (1:2,000) for detection of phosphorylated ErbB receptors, or a phospho-specific p42/p44 MAP kinase antibody (dilution ratio 1:1,000) for detection of phosphorylated MAP kinases. The same amount of cell extract protein was loaded into each lane and separated by SDS-PAGE. Immunobloting with an anti-ErbB receptor or anti-p42/44 MAP kinase antibodies was also used to normalise for protein loading. MAP-kinase (p42/p44) activity was measured using a p42/44 MAP kinase enzyme assay kit (RPN84; Amersham, Bucks, U.K.) according to the manufacturer's instructions.

p21^CIP1 = p21^CIP1 protein expression in embryonic cardiac muscle cells (immunoblot); assay type: cell-based, mouse
Procedure: as §1
Embryonic myocardial cells cultured in serum-free or 5% FBS medium were stimulated with various concentrations of rhNRGβ2 with or without the MEK inhibitor, PD98059, for 24 or 48 hrs, harvested as described above and subjected to immunoblot analysis using an anti-p21^CIP1 antibody (1:100). The same amount of protein was loaded into each well of a SDS polyacrylamide gel. After immunoblotting, the membrane was stripped and probed further with an antibody to the ErbB2 receptor for normalisation of protein loading.

[2] = tested on: E12.5 mouse cardiac muscle cells; test: Sarcomeric and cytoskeletal structure of embryonic mouse cardiac muscle cells (phalloidin and anti-α-actinin staining); assay type: cell-based; conditions: for sarcomeric actin reorganisation and contractile unit assembly: 48 hrs, serum-free
Procedure: as §1
(§3) Myocardial cells were plated in 2-well Novex plates (Nunc), and cultured with or without rhNRGβ2 in serum-free DMEM medium for 24-48 hour. After rinsing the cells with PBS, they were fixed with 4% paraformaldehyde and 0.1% Triton X-100 at room temperature for 30 minutes. The fixed cells were then blocked with 5% skim milk in PBS for 1 hr, followed by incubation with an anti-α-actinin monoclonal antibody (Sigma), for 45 minutes at room temperature. After washing, anti-mouse IgG conjugated with FITC (Sigma) was added and the cells were incubated for another half hour. For phalloidin staining, cells were fixed with 4% formadehyde for 1 hr, washed, and stained with phalloidin buffer (100 μl PBS, 10 μl rhodarmine phalloidin (6.6 μM in MeOH)) for 1 hr. After PBS washing, cells were mounted with 1% p-phenylenediamine (1 mg/ml, Sigma) in glycerol, and then covered and sealed. Cells were examined using a UV fluorescent microscope and photographed with a 40× power objective.

ventricular muscle cells = conditions: cited from earlier work; for hypertrophy score (maximal increase in cell size): scale 7 to 0, 3 = non-stimulated cells, 7 = fully hypertrophied
[3] = tested on: embryonic mouse cardiomyocytes; test: DNA synthesis ([3H] thymidine incorporation) in cultured embryonic mouse cardiomyocytes; assay type: cell-based; conditions: for effect on IGF-I (10^−9M)-stimulated DNA synthesis: 20 hrs
Procedure: as §1
Embryonic myocardial cells were cultured with rhNRGβ2 or IGF-I containing serum-free DMEM for 20 hrs. [methyl-^3H] Thymidine (0.5 μCi/well) was added and cells were then cultured for a further 12 hrs. After rinsing twice with cold PBS, once with ice-cold 10% trichloroacetic acid, and then five times with ice-cold PBS, the cells were dissolved in 100 μl of 1% SDS, and counted in a liquid scintillation counter.
(§4) All of the above assays were repeated at least three times for each experiments. Data for DNA synthesis and MAP kinase activity are presented as the mean±S.E of five replicate samples. Statistical significance was determined by ANOVA using the SAS statistical package with P<0.05 being considered significant. Immunoblots were quantitated by densitometry analysis with the intensity of the evaluated protein bands being shown below the blots as the fold changes over control (see FIGs).

[4] = tested on: neonatal rat cardiac muscle cells; test: Sarcomeric and cytoskeleton structures and MHC-α expression of cultured neonatal rat cardiac muscle cells; assay type: cell-based; conditions: for sarcomeric and cytoskeleton structures, cell-cell adhesions: single agent, Phalloidin and anti-α-actinin staining
Procedure: By using primary cultured myocardial cells as a model system, the present inventor evaluated neuregulin signalling in cardiac myocyte differentiation, maturation and assembly or maintenance of sarcomeric and cytoskeleton structures. To assay the neuregulin effect on cell signalling, embryonic cardiac muscle cells were incubated with recombinantly purified human neuregulin ligand (rhNRGβ2). […] Such an effect was not found from the cells stimulated with either insulin IGF-1 or PE. […] These findings indicate that NRG function through two distinct pathways: one activated at lower ligand concentrations results in cardiomyocyte growth, whereas the other, activated with higher concentrations, is mediated by sustained activation of the MAP kinase pathway and results in terminal differentiation and maturation.
as §3

p42/p44 MAP kinases [5] = test: MAP kinase catalytic activity in extracts of treated cardiomyocytes (p42/44 MAP kinase enzyme assay kit); assay type: cell-based, mouse
Procedure: as §1
Embryonic myocardial cells were cultured in serum-free medium for at least 24 hrs and then stimulated with rhNRGβ2 or IGF-I for various times. Stimulation was terminated by washing cells rapidly with cold PBS. […] MAP-kinase (p42/p44) activity was measured using a p42/44 MAP kinase enzyme assay kit (RPN84; Amersham, Bucks, U.K.) according to the manufacturer's instructions.
as §4, with “Data for DNA synthesis and MAP kinase activity are presented as the mean±S.E of five replicate samples.” left out

[6] = tested on: MCF-7 breast cancer cell ErbB receptors; test: Stimulation of MCF-7 breast cancer cell ErbB receptors (activity check of purified protein); assay type: cell-based; conditions: ligand 10^−12M to 10^−8M, MCF-7 cells
From the text: A cDNA encoding the EGF-like domain of human NRGβ2 isoform (rhNRGβ2, residues 177-237, was inserted into the pFLAG1 expression vector (IBI) (a gift from Dr. Rodney J. Fiddes, Co-operative Research Centre for Biopharmaceutical Research, Australia). rhNRGβ2 with a FLAG-peptide attached at its N-terminus, was expressed in the periplasmic space of E. coli DH5α, and purified by affinity chromatography using anti-FLAG M1 monoclonal antibody according to the manufacturer's instructions. The purity of rhNRGβ2 was more than 90% as evidenced by SDS-PAGE separation and Coomassie Blue staining of purified protein samples. The concentration of purified proteins was determined using a Bio-Rad protein assay kit. Activity of the purified proteins was assayed by stimulation of MCF-7 breast cancer cell ErbB receptors with various ligand doses.

[7] = molecular target: T1, ErbB2 and ErbB4 receptors (Mus musculus, UniProt Q61527); test: ErbB receptor phosphorylation in embryonic cardiomyocytes (Western blot / immunoprecipitation); assay type: cell-based
T1 construct: ErbB2 and ErbB4 are most abundantly expressed in cardiac myocytes; endogenous in cells; host or cells: primary embryonic (E11.5-12.5) mouse cardiac myocytes
Procedure: as §1
as §2, with “Immunobloting with an anti-ErbB receptor or anti-p42/44 MAP kinase antibodies was also used to normalise for protein loading.” left out

[8] = tested on: sarcomeric myosin heavy chains; test: Sarcomeric myosin heavy chain and sarcomeric actin expression in embryonic mouse cardiac muscle cells (immunoblot); assay type: cell-based; conditions: rhNRGβ2-stimulated
Procedure: FIGS. 6A-6B. Effects of NRG on cardiac sarcomere assembly and myosin heavy chains expression. FIG. 6A. E12.5 mouse cardiac muscle cells were cultured in serum-free medium (control) or stimulated with 10^−10 or 10^−8M rhNRGβ2 (NRG) for 48 hrs. Cells were then stained with phalloidin (left panels) or evaluated for anti-α-actinin immunoflorescency (right panels). FIG. 6B. Sarcomeric myosin heavy chain α-actin expression rhNRGβ2-stimulated embryonic mouse cardiac muscle cells were evaluated by immunoblot analysis using an anti-sarcomeric myosin heavy chain antibody (MF20) or an anti-α-actinin antibody. The same amount of whole cell extracts (20 μg proteins) was loaded into each lane for SDS-PAGE fractionation.
as §1

T1 sequence (Q61527 26-1308): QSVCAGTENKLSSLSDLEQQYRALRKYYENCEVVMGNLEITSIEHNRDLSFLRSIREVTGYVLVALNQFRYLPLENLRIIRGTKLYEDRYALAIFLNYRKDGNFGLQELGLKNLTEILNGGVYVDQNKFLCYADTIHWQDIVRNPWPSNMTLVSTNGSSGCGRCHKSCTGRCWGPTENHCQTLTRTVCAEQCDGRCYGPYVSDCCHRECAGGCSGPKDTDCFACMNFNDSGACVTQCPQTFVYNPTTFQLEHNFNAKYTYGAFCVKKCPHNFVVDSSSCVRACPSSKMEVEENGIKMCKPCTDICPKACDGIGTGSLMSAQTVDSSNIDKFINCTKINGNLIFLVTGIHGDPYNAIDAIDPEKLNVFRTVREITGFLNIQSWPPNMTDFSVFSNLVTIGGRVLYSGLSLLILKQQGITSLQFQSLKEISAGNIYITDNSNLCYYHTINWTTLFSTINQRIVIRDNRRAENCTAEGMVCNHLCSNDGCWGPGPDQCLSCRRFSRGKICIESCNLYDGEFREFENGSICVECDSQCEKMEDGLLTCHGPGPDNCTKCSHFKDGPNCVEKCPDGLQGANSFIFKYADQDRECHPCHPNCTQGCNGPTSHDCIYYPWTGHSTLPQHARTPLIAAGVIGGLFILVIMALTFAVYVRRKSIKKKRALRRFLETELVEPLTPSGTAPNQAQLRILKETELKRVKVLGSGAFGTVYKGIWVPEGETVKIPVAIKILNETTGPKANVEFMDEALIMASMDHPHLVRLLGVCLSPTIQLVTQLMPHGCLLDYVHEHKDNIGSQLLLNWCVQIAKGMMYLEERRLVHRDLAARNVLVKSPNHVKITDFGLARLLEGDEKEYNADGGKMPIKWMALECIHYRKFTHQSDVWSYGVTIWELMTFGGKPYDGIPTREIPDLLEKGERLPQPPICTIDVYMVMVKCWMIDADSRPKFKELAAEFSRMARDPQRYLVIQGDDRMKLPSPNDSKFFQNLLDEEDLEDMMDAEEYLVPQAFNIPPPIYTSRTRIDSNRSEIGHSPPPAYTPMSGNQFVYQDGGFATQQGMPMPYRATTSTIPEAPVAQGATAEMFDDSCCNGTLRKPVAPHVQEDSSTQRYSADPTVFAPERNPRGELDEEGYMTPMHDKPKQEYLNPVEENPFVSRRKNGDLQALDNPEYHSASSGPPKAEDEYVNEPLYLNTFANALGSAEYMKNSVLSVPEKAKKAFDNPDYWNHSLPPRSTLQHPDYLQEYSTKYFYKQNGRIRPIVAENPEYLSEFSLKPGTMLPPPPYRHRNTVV
T1 sequence (P70424 23-1256 partner): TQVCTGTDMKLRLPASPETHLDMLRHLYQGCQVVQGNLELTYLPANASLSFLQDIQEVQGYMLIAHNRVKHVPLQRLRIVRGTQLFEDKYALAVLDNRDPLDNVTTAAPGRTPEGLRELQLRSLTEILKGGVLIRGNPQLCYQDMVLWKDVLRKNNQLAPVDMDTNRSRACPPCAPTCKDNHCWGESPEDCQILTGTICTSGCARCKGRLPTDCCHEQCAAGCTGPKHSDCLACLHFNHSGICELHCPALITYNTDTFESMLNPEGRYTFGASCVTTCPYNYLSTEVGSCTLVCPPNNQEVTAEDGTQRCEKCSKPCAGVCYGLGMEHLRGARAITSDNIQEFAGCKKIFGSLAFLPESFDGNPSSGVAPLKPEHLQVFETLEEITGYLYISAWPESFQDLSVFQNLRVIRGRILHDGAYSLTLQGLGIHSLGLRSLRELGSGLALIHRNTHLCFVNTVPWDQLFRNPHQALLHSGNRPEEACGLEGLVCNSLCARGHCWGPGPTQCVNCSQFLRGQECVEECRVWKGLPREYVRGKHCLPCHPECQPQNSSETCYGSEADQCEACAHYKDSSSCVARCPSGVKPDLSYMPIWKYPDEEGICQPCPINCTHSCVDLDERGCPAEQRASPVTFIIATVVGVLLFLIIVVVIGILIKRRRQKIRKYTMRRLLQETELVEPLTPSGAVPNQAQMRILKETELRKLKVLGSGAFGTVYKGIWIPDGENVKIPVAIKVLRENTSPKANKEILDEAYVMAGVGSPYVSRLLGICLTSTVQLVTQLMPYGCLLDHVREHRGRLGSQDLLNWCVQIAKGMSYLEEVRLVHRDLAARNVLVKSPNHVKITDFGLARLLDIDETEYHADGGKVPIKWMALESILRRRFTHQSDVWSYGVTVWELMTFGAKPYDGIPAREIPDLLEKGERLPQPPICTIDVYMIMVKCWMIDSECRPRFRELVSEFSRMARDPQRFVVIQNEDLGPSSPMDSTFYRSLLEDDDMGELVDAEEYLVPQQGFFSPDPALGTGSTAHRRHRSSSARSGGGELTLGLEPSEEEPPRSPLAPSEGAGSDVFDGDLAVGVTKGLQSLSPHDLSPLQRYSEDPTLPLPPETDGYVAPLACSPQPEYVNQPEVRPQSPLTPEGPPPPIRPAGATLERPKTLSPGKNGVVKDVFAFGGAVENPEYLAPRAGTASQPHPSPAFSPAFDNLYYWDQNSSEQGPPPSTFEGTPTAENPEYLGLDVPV

effect on NRG-induced increase in p42/44 MAP kinase phosphorylation (p42/p44 MAP kinases [1]; PD98059 added 30 mins before, cells stimulated 5 min): blocked
Molecule: COc1cccc(-c2cc(=O)c3ccccc3o2)c1N [PD98059, reference compound]
effect on p21^CIP1 expression induced by 10^−8M rhNRGβ2 (p21^CIP1; PD98059 50 μM, presence or absence of serum): blocked the increase in p21^CIP1 expression
sensitivity of rhNRGβ2 effects on cardiomyocytes to MEK1 inhibition ([2]; PD98059): sensitive to MEK1 inhibition

MAP kinase phosphorylation time course (p42/p44 MAP kinases [1]; IGF-I low (10^−9M) and high (10^−8M or 10^−7M) concentrations): transient
Molecule: IGF-I: recombinant human insulin-like growth factor I, commercially obtained (Boehringer)
DNA synthesis response ([3]; concentrations ranging from 10^−11M to 10^−7M): only a proliferative response
p21^CIP1 expression (p21^CIP1; IGF-I 10^−10M or 10^−8M): did not stimulate p21^CP1 expression
sarcomeric and cytoskeleton structures, cell-cell adhesions [4]: not found

duration of p42/p44 MAP kinase phosphorylation (p42/p44 MAP kinases [1]; 10^−8M (higher dose)): at least 21 hours
MAP kinase activation (phosphorylation) time course (p42/p44 MAP kinases [1]; 10^−10M (lower ligand concentration), fell to basal level in less than three hours): only transient activation
MAP kinase phosphorylation time course (p42/p44 MAP kinases [1]; combination of IGF-I (10^−9M) and rhNRGβ2 (10^−8M)): sustained MAP kinase phosphorylation
phosphorylation of immunoprecipitated ErbB2 and ErbB4 ([7]; 5 min stimulation, 10^−10M or 10^−8M): dependent on rhNRβ2 concentrations
B1: rhNRGβ2: EGF-like domain of human NRGβ2 isoform, residues 177-237 (SEQ ID NO: 2), FLAG-peptide at N-terminus, expressed in E. coli DH5α (protein, listed as Homo sapiens)
chain: {FLAG}-SHLVKCAEKEKTFCVNGGECFMVKDLSNPSRYLCKCPNEFTGDRCQNYVMASFYKAEELYQ
modifications: also: recombinant protein expressed in E. coli
effect on IGF-I (10^−9M)-stimulated DNA synthesis ([3]; 10^−8M NRG): significantly blocked the IGF-I response
effect on IGF-I (10^−9M)-stimulated DNA synthesis ([3]; 10^−10M NRG): little effect
DNA synthesis response versus control (vehicle) ([3]; all concentrations except 10^−7M, P<0.001, 20 hr): significantly greater than control
DNA synthesis ([3]; ligand concentrations >10^−10M): decreased
increase in DNA synthesis ([3]; rhNRGβ2 at 10^−10, 20 hr treatment, embryonic mouse cardiomyocytes (E11.5-12.5)): approximately 2 fold
duration of enhanced p21^CIP1 expression (p21^CIP1; 10^−8M): at least 24 hours
p21^CIP1 expression (p21^CIP1; 10^−8M (higher concentration), serum-free or 5% FBS, 24 hrs): increase in p21^CIP1 expression; also recorded: enhanced
duration of MAP kinase catalytic activity (p42/p44 MAP kinases [5]; 10^−8M): at least 21 hours
MAP kinase catalytic activity time course (p42/p44 MAP kinases [5]; 10^−10M): only transient
ErbB receptor phosphorylation [6]: increased ErbB receptor phosphorylation with increasing ligand concentration
phosphorylation of 180-185 kDa proteins corresponding to ErbB2/ErbB4 receptors ([7]; 10^−8M compared with 10^−10M, cell lysates): a higher level of phosphorylated 180-185 kDa proteins
sarcomeric actin reorganisation and contractile unit assembly ([2]; 10^−8M): stimulated both sarcomeric actin reorganisation (phalloidin staining) and cardiac contractile unit assembly
sarcomeric actin reorganisation and contractile unit assembly ([2]; 10^−10M): much less evident
expression of sarcomeric myosin heavy chains ([8]; MF20 immunoblot): enhanced expression of sarcomeric myosin heavy chains
sarcomeric actin expression ([8]; immunoblot): remained unchanged
improvement of sarcomeres and cell-cell adhesions ([4]; 10^−8M concentration): maximal effect
cell structures when mixed with either IGF-1 or PE ([4]; rhNRGβ2 mixed with IGF-1 or PE): improved the cell structures
sarcomeric and cytoskeleton structures, cell-cell adhesions [4]: dramatically improved sarcomeric and cytoskeleton structures, as well as cell-cell adhesions
MHC-α expression under PE stimulation ([4]; with PE): overrode the negative regulation of MHC-α expression

Continued, molecule first:

Molecule: CC[C@H](C)[C@H](NC(=O)[C@H](CC(=O)O)NC(=O)[C@H](CC(C)C)NC(=O)[C@H](Cc1c[nH]cn1)NC(=O)[C@@H]1CSSC[C@H](N)C(=O)N[C@@H](CO)C(=O)N[C@H]2CSSC[C@H](NC(=O)[C@H](CCC(=O)O)NC(=O)[C@H](CCCCN)NC(=O)[C@H](CC(=O)O)NC(=O)[C@H](CCSC)NC(=O)[C@H](CC(C)C)NC(=O)[C@H](CO)NC(=O)[C@H](CO)NC2=O)C(=O)N[C@@H](C(C)C)C(=O)N[C@@H](Cc2ccc(O)cc2)C(=O)N[C@@H](Cc2ccccc2)C(=O)N1)C(=O)N[C@H](C(=O)N[C@@H](Cc1c[nH]c2ccccc12)C(=O)O)[C@@H](C)CC [endothelin]
hypertrophy score (maximal increase in cell size) (ventricular muscle cells): ~5

Molecule: CNC[C@H](O)c1cccc(O)c1 [PE, phenylephrine]
surface area/cell of fully hypertrophied cells (ventricular muscle cells; non-exposed cells 581 μm^2): 1811 μm^2
hypertrophy score (maximal increase in cell size) (ventricular muscle cells): 7
sarcomeric and cytoskeleton structures, cell-cell adhesions [4]: not found
